According to a protein production outcome set (Wang et al. 2014):

Test: label from the status in PepcDB records

Row | Sequence | protein production
1 | MFRRLILRQAAAVAAESKIACHHTVHGFEQRRGLHSRNEKAMEYVAKGWSAIKEVERVIDYCELNDRRLIPLLRGAKENFELALEADNLNTHARYWLSKLHLKYHVPGACKAVGAALLVEAADMGNADAQYELGCRLRVENDHVQSDQQAFHYIENAVDQLHPGALYLLGIVYLTGDCVKQDVDSAIWCFHRASEKGHAGAAIAYGSLLLRGVQVPESLTKLNVVGVSPPKRARKNLENPEMNPLEMAKEQFQIAARAGCDLGLKWLQRVEQEEKLLMREQDNECAYV | failed
2 | MFRRTLPVLAAAVGLAAAAAGPATADDVPADRLPGHRVLDVMTFNIHHAQGTDDVLDLRRVANVIRKSGADVVGLQEVDKHYSARSDWADQPAELAELLGYHVVFGANIDNSPPAPGGHRVQYGTAILSRYPITASDNTWLYKSPGQEQRGLLHATLDVHGKKVEFYNTHLAAGSQADRLQQTAQVVDLIGTRKPGILVGDFNALPAAPESRPLQNAYTDAWAKSLHARGDGATYPAQSPTERIDLIYATRRVTPLVAQVLKDDPAASDHRPLLGKVLV | failed
3 | MFRVFILFGFGFYLMQLHISGDISKYINMKYAYLSFSAMIAAFLLAIIQLIMVFRDEDIGAKTEHMGHTHDGENTILKKIMVYGLLSYALIAGFLFPVATLDSTIVSAKGFHFPKNNAAGDDPYAQNQFLRPDTSGYFGETDYEKMMAKEKAEIIDQNPIKVNDSNYLMTMEILYNYPGEFTGKQIEFTGFVYNDEVTKDNNLFLFRFGIIHCVADSGVFGMLVQMPEKTNLKNDTWLTVKGTITQEYYSPFKMNIPSVQVESYKEVAKPKSVYVYRKY | failed
4 | MFSAKKRDKCIGEMSEKQLDLLVIGGGITGAGIALDAQVRGIQTGLVEMNDFASGTSSRSTKLVHGGLRYLKQFEIKLVAEVGKERAIVYENAPHVTTPEWMLLPIFKDGTFGKFSTSLGLKVYDYLADVRKDERRYMLNEKQTLEKEPLLRKENLKGGGIYVEYRTDDARLTLEIMKEAVARGAVALNYMKVESFIYDQGKVVGVVAKDRLTDTTHTIYAKKVVNAAGPWVDTLREKDRSKHGKYLKLSKGVHLVVDQSRFPLRQAVYFDTESDGRMIFAIPREGKTYIGTTDTFYDKDIASPRMTVEDRDYILAAANYMFPSLNLTADDVESSWAGLRPLIHEEGKKASEISRKDEIFFSDSGLISIAGGKLTGYRKMAERTVDAVAQGLNVNEPCTTAAIRLSGGLAEGAQGFPRFLDEASRKGAKLGFDADEVRRLAKLYGSNVDHVLNYAYEGKEEAEHYGLPALLLGQLQYGVEQEMVATPLDFFVRRTGALFFNISLVHQWKEAVLRWMAEEFSWTEEEKTRFQNELETELKMAVDPLFQVEPTTVLEHHHHHH | not failed
5 | MFSEVEMARDVAICAKHLNGQSPHQPILCRLLQDLIHEKACREHGFYLGITALKSIGNNKNNNIDNENNHQAKILTFPVSFTCRTFLPARGDILQGTVKKVLWNGAFIRSGPLRYAYLSLLKMPHYHYVHSPLSEDEKPHFQKDDLSKIAVGVVVRFQVLAVRFKERPHKRRNDYYVLATLEGNGSFGPISLTGSDEPYM | failed
6 | MFSFFSRWYQERFSDPQAVTLLAILVGLALVLYFAGGLLAPLLVALVLAFLLEWPVAQMLKLGINRTTAASLVLIIFLGIVVLLTFGLIPSVWRQGVSLMTDLPSMIDKGLQTVQGLATQYPQFISVEQLNLMVAELKKLLDTQHVLDIAKQLIGYSASLLVLMVYAILVPLLVFFFLKDKDQLISGSKRFFPTNRQLARKVWFEMHQQIFNYIRGKVIEIVIVGVASYILFAFMGLSYSALLGVLTGLSVLIPYVGATLVTLPIMLVAFFQWGFSSEFGYLMLGYGIIQALDGNVLVPILFSDAVDLHPVIIIAAVLVFGGLWGVLGVFFAIPLASLVKAVINAWPKTEIEPSASAPPQK | failed
7 | MFSIVFPVIAPVLIVVAVGFGWARAGRPFDTATVSALGLGLGTPFLLTDVLMSANIAADALAAMGLAALLTLAGMAVGGALTLRLLKLPQAVFLPSMIFGNTGNIALPLCLFAFGDEGLALSIGYFTVVIVIQFSATALISSGERPVPVILRNPVIWTLLVVGTLKAGGIALPGWLADTAHMVGGMCIPVMLLALGVSLARLKVAGLGVALLLGAVKIALGVALGYATVLALDLHGAARGVVLIQSAMPPAVFNYLFAARYNQRPEEVAGLVIVSTGLSVLTMPLLLWGAMADM | failed
8 | MFSKLKKTWYADDFSYFIRNFGVFTLIFSTMTLIILQVMHSSLYTSVDDKLHGLSENPQAVIQLAINRATEEIKDLENARADASKVEIKPNVSSNTEVILFDKDFTQLLSGNRFLGLDKIKLEKKELGHIYQIQVFNSYGQEEIYRVILMETNISSVSTNIKYAAVLINTSQLEQASQKHEQLIVVVMASFWILSLLASLYLARVSVRPLLESMQKQQSFVENASHELRTPLAVLQNRLETLFRKPEATIMDVSESIASSLEEVRNMRFLTTSLLNLARRDDGIKPELAEVPTSFFNTTFTNYEMIASENNRVFRFENRIHRTIVTDQLLLKQLMTILFDNAVKYTEEDGEIDFLISATDRNLYLLVSDNGIGISTEDKKKIFDRFYRVDKARTRQKGGFGLGLSLAKQIVDALKGTVTVKDNKPKGTIFEVKIAIQTPSKKKK | failed
9 | MFSLREYRNKADRLADFLPWAALVAPGVVLNKDGSFQRSARFRGPDLDSATPAELIATTARLNSALRRLGSGWAIFVEAVRRPAHDYPESDFPDAASALVERERAAQFAEEGAHFESAYYLTLVWMPPAEDAARAESWLYEGKAHQGVQARELLELFSDRTDRLLRLIEGFVPEAAWLDDSETLTYLHSCISTRNHRVRVPETPMHLDALLADEPLTGGLEPRLGRAHLRTLTVVGFPSATFPGILDELNSQGFAYRWSTRAIMLDKTDAAKLLGKIRRQWFAKRKSVAAILKEVMTNEASALLDSDASNKAADADAALQELGSDLQGMAYVTATVTVWDEDAAMAAEKLRLVEKVIQGRDFTVIVEGMNALEAWLGSLPGHVYANVRQPPISTLNLAHMIPLSAVWAGPEWDAHFRAPPLFYARTEGSTPFRFALHVGDVGHTLIVGPTGAGKSVLLALMALQFRRYDRAQIFAFDFGGSIRAAALACGGDWQDLGTSLAGDGAGAVMLQPLARIDEPAERNWAAEWLQAVLTGEGVTVDPATKEHLWSALTSLSTALVAERTLTGLAVLLQSQALKQALAPYCIGGPFGRLLDAEAEQLGAGKFQAFETEGLTGSAAAPAVLSYLFHRIEGRLDGSPTLIIIDEGWLVLDSPAFAAQLREWLKTLRKKNASVVFATQSLADIETSAIAPAIIESCPTRIFLPNERAIEPQILSVYRRFGLNDRQIEIIARAAPKRDYYCQSARGNRLFELGLGEVALAFAAASSKTDQLAISELTETHGTGGFARAWLRHRGLAWAADMLPPDPVPPTRSDQAAGQPKE | failed
10 | MFSLRSALILALLIIASLVNTKYSLPLALLVVGLTYLLDEQRLLPYASIVSFLIPMVYPLETSYVPMIYALSSIGILASKYSRLLSSVLIILGVSILPLGDVQKYLILYLTAFLLLGVDIRGTLGGGIIMLILATQGYVPYDLAFYTILFGVLSLTTLYKIKVTRYHAIAILSAIFPLLYSYFPLPSFLVSLGSALVFPPALFSTSILLYVEGFKQGIYGLLLILLSLVYNRYEKYFRTISMVLVSAGLSIFSSVFPPLILILIVIYFLEKGKVLTYSQYFLIPLSLYLLIQGSYQSLVYSSIALIIVSTLRMILRTTDSNRFKKLVKLMNARIVGGIISLLIEIILFFIALQYLVFPLSYVALTLSVIYAVFIFRERNAFVHFSLSAVLALFFNPVFALGGIKLKDSLNVIVVALTIIMGILFSHTLYFSIISVFLSVSYLLQKFDIHDLVPLSVISIVSIIPGITWTYVLPPILLSFSYLITKKYSYELGLSSMFCIIILIHYLIV | failed
11 | MFSPQASAAYDDLHEGYATYTGSGYSGGAFLLDPIPSDMEITAINPADLNYGGVKAALAGSYLEVEGPKGKTTVYVTDLYPEGARGALDLSPNAFRKIGNMKDGKINIKWRVVKAPITGNFTYRIKEGSSRWWAAIQVRNHKYPVMKMEYEKDGKWINMEKMDYNHFVSTNLGTGSLKVRMTDIRGKVVKDTIPKLPESGTSKAYTVPGHVQFPELEHHHHHH | not failed
12 | MFSRVPAKSIARFRCVSESIHRRPDVTEQSLTKSMSRPRLLFALEVNKDLLFFSSPQPQNPYDNSSLVATPYKRFPKYLPTRICTTLGGLVFLQKWLRKKTRVICNPVSGDYITLPKVKATGVGESYFGFDPITKQFKVLCMTWSRYGTPNTHQVLTLETGKRLWRTIQDPILPHYRSFDRICINGVLYYGADFEESQSSKIVCFDFRFEKFSFINIADEGMFRGSYKWTLFNYKGKLGAHQYSRNGELVLWVLEDAENHKWSKSICILPPIVHNSRIVGVTGTGEIVFSPYACYMPSPFYIFFYNIQTKTCTRVHVKGFEEFKHNFTLLHTFLDFVEDTKFM | failed
13 | MFTESSPAMDPDLPESETRPEFNPSSTDSTAMAESTDAGEPTAFELASSQVTSVADLPPERFNSLDELTHDLGSLHELSTRGSWQAILEKISQARALFLLTKPHEHLTYLTYQVMALAKLRRSDEASHELNSLHDFDGTHYRYESFPEIYPNRRGSMVPFSLRWLYALIPTKLGNRQEGLDRLYVLLDFVRDRIREKESQSLESSVELWKKRETFVMNCLLGFHLGHKEFGVSLDLMKELINRDPLDPVLISKLGSVQMQFGDVEGAKTTFDRVEKMLNEGKSNGLLNEIQFNNLVGRNKALVYVVAKDYVSAVREYDKCIERDNSDIIAVNNKALCLMYLRDLSDAIKVMESALERVPTAALNESLVVNLCSMYELAYVNHTDVKRTLNNWIARVAPDDFDSSCTRV | failed
14 | MFTETGLKSGRRTMRFARLLLLPLIVIGTLSGCAVNMADIHGFNVISLEQEKELGTKFAAEIEKQYPVYNDPEAQKYVDRLGRRLLTGAREVSFDYVFKVVKDDSVNAFAIPGGRLYVHTGLLKAAQSETEVAAVMAHEISHAVARHGTRQMTQQYGYSLVLSLVLGQNSNMLAQIAGELFGKAGMMSYSRDYENQADFLGVETMSKAGYNPQGMVSFFQKLDTMGQQNPSALTKFFSSHPLTSERIQRVQAEIAQLPPRTYPPVDNTDLQKIRARIKLEHHHHHH | failed
15 | MFTGSIVALVTPMDEKGNVSRSCLKKLIDYHVANGTSAIVSVGTTGESATLSHDEHGDVVMMTLELADGRIPVIAGTGANATAEAISLTQRFNDSGIVGCLTVTPYYNRPTQEGLFQHFKAIAEHTDLPQILYNVPSRTGCDMLPETVGRLAEIKNIIAIKEATGNLTRVHQIKELVSDDFILLSGDDASALDFMQLGGHGVISVTANVAAREMADMCKLAAEGQFAEARAINQRLMPLHNKLFVEPNPIPVKWACKALGLVATDTLRLPMTPITDHGRDIVKAALQHAGLL | not failed
16 | MFVFGAYWFDCGERAVLPANSRGALRPQCTRLRFWRGRYWHRGAVSALRRVRPLSASTPSPRVLDGSQSLADTPDNVQQLLQHMSQELDSVVQSMVHLEEYALEQVEKLKGAMEADLRKLALYEEEQAFAQKLTEQLQKKEGAVFEAMRHFLFHVVGLQEQTVAITNELQVLHEFVSENHERVELVLESLRERGLFGSRQDVFEGEVKKKLDRFDPEI | failed
17 | MFVQSALHQLKVAVDTSIQMLDQYTEIDLKIAPIQSKRSLFEMYAHLSLICHADLLILNGSTEKELHTFYKEQTPETIAQMQKTMIQGYDLLSKTFLSYSNEQLAEMKTAYWGISYSRFEWLLEIVAHFYHHRGQIHILLCEHMKDPNIPLFQ | not failed
18 | MFVRSHCLEVTNLRKWFYYFNRRNKRMQWLKVILAGFIEIIWVTGLDQAHSLFTWIFTLFFIALSFFLVIDASKHLPVGTVYAFFVGIGAVGTVLVDMIFFNQPFTFTKIFLIMTLILGIIGLKLTTDATKEGR | failed
19 | MFWDNLTVAAKFFIEISVELTILFIGITFLVGLSQEYVPDETIKRALGGRNKVIGSILGAGFGAITPFCSCSTIPLLLGMLKAGAPFAAAMAFLFSSPLLNPVIISLFVILLGWKVTALYFVVVFMSTIAIGLLLDWLGFSNQIKPVAVVRNRCDCEQDTNAKSRIQRSAVFAFSLFRQLMPYLLLGAGIGAFIHGFVPTEVITRVAGPSNPLAVPVAAIIGVPIYIRAETMIPIGLALIKKGMSVGAVLALIIGGAGASIPELTLLSSIFKKRLLTAFVITVFSIAVIAGYLANLLTL | failed
